This note sets out measurements from patent US20230250154A1 (CYTONICS, published 2023).

Among the targets are MMP12 (human, UniProt P39900 106-470, limits assumed); MMP3 (human, UniProt P08254 100-477, limits assumed); MMP13 (human, UniProt P45452 104-471, limits assumed); MMP8 (human, UniProt P22894 101-467, limits assumed); MMP9 (human, UniProt P14780 107-707, limits assumed); bovine trypsin (bovine, UniProt P00760 24-246); Elastase; chymotrypsin.
Common to all, as to assay: cell-based or functional assay
For a further test, the target named is T1, MMP2 (human, UniProt P08253 110-660, limits assumed).
T1 sequence (looked up): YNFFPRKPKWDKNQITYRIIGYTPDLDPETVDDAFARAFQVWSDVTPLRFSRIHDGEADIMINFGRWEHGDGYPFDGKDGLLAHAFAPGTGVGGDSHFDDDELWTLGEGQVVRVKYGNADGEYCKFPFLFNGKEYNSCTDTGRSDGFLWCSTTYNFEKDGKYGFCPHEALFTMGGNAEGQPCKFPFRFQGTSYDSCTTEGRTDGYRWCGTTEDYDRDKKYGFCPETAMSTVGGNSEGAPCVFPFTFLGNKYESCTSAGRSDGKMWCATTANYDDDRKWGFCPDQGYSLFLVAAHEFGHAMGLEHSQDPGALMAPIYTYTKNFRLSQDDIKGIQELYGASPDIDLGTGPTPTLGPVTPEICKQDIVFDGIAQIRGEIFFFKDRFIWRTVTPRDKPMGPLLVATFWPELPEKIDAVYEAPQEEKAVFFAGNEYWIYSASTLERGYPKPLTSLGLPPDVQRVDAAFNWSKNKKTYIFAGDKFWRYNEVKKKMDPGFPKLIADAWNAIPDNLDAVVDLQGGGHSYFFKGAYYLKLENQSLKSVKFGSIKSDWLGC

The next test has as its target T2, MMP1 (human, UniProt P03956 100-469, limits assumed).
T2 sequence (looked up): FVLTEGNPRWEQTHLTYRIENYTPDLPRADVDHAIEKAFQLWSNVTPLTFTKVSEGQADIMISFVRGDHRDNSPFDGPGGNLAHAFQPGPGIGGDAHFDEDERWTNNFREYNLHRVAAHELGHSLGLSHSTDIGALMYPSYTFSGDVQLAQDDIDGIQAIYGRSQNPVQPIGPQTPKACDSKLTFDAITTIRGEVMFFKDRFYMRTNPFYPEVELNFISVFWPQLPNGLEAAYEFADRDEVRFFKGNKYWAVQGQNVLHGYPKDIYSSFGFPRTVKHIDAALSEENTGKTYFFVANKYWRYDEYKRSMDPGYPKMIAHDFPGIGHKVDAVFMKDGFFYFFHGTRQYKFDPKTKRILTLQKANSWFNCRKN

A further test deals with T3, ADAMTS4 (human, UniProt O75173 213-685, limits assumed).
T3 sequence (looked up): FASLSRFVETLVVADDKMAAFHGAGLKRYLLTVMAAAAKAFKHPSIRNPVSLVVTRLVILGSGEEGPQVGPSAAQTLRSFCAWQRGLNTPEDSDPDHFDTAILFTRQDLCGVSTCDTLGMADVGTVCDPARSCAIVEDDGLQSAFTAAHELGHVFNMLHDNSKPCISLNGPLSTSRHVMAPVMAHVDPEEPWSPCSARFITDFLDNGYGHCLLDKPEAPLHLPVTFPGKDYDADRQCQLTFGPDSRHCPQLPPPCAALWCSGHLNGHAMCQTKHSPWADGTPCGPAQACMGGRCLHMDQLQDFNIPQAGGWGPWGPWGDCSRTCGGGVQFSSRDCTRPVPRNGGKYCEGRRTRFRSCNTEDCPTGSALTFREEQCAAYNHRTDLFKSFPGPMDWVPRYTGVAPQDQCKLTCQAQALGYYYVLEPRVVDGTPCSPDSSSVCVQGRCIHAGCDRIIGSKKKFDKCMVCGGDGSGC

The next test addresses T4, ADAMTS5 (human, UniProt Q9UNA0 262-622, limits assumed).
T4 sequence (looked up): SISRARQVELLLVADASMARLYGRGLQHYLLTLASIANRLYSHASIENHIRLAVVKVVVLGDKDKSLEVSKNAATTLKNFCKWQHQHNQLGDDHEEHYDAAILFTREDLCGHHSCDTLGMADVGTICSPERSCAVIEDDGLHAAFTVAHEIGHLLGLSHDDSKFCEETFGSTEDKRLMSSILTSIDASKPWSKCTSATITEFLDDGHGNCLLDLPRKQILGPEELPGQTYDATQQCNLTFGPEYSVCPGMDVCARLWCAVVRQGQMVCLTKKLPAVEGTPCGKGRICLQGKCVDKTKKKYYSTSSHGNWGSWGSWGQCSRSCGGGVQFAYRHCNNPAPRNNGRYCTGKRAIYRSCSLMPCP

MMP8, sequence (P22894 101-467 limits assumed): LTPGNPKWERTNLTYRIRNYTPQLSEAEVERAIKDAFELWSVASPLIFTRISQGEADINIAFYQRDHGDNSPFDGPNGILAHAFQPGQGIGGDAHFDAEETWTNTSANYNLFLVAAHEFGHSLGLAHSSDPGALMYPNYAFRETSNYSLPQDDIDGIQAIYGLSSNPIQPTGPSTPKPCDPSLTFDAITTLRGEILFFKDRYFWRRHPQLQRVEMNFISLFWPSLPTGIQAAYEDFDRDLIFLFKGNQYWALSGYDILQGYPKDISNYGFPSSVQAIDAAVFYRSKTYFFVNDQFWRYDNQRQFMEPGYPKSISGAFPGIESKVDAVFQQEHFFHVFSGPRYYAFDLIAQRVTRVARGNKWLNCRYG
MMP9, sequence (P14780 107-707 limits assumed): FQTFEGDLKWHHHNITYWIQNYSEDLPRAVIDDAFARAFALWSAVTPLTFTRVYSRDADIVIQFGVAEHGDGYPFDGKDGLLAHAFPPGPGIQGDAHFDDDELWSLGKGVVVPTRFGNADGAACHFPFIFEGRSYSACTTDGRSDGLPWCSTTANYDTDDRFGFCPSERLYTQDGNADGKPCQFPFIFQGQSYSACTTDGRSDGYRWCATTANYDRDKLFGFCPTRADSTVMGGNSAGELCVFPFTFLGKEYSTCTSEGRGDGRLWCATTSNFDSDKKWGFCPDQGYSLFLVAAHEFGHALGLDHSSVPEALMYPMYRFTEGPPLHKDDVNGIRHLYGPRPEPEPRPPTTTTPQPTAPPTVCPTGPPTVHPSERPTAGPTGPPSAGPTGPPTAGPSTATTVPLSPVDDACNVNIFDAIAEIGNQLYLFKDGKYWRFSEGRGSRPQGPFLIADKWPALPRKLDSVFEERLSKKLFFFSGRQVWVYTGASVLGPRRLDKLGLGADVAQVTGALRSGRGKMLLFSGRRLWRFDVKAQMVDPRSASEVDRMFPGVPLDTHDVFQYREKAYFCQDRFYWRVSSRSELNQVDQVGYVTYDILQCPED
MMP3, sequence (P08254 100-477 limits assumed): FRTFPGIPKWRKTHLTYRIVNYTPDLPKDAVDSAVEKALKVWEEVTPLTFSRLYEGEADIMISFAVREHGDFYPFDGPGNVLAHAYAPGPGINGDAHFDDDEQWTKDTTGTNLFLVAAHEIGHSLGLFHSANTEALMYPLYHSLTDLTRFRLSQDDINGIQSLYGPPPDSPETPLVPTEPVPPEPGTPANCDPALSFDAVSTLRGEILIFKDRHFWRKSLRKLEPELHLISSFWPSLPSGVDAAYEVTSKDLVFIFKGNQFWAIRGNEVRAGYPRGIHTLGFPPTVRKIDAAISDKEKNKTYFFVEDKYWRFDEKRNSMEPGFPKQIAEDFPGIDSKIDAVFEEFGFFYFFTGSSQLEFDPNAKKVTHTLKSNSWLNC
bovine trypsin, sequence (P00760 24-246): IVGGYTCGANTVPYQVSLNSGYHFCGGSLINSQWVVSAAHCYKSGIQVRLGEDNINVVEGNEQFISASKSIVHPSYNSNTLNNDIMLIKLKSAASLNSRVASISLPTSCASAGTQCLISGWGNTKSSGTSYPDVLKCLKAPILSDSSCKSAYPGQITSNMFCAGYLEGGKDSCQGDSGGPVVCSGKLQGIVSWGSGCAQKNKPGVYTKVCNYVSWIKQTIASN
MMP12, sequence (P39900 106-470 limits assumed): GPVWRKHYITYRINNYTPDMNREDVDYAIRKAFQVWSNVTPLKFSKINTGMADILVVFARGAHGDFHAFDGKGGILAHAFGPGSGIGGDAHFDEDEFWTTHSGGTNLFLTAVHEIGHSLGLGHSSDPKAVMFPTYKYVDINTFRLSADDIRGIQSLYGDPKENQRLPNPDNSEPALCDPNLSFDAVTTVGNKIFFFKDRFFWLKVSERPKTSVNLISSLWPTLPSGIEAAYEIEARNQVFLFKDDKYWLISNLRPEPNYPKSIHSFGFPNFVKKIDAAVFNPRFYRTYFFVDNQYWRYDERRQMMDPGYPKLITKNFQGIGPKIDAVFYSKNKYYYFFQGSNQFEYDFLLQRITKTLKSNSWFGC

B1: Variant A2M, bait region SEQ ID NO 96 (other)
chain: SVSGKPQYMVLVPSLLHTETTEKGCVLLSYLNETVTVSASLESVRGNRSLFTDLEAENDVLHCVAFAVPKSSSNEEVMFLTVQVKGPTQEFKKRTTVMVKNEDSLVFVQTDKSIYKPGQTVKFRVVSMDENFHPLNELIPLVYIQDPKGNRIAQWQSFQLEGGLKQFSFPLSSEPFQGSYKVVVQKKSGGRTEHPFTVEEFVLPKFEVQVTVPKIITILEEEMNVSVCGLYTYGKPVPGHVTVSICRKYSDASDCHGEDSQAFCEKFSGQLNSHGCFYQQVKTKVFQLKRKEYEMKLHTEAQIQEEGTVVELTGRQSSEITRTITKLSFVKVDSHFRQGIPFFGQVRLVDGKGVPIPNKVIFIRGNEANYYSNATTDEHGLVQFSINTTNVMGTSLTVRVNYKDRSPCYGYQWVSEEHEEAHHTAYLVFSPSKSFVHLEPMSHELPCGHTQTVQAHYILNGGTLLGLKKLSFYYLIMAKGGIVRTGTHGLLVKQEDMKGHFSISIPVKSDIAPVARLLIYAVLPTGDVIGDSAKYDVENCLANKVDLSFSPSQSLPASHAHLRVTAAPQSVCALRAVDQSVLLMKPDAELSASSVYNLLPEKDLTGFPGPLNDQDDEDCINRHNVYINGITYTPVSSTNEKDMYSFLEDMGLKAFTNSKIRKPKMCPQLEQYEMHGPEGLRVGEGEGEGEGFYESDVMGRGHARLVHVEEPHTKLLRKYFPETWIWDLVVVNSAGVAEVGVTVPDTITEWKAGAFCLSEDAGLGISSTASLRAFQPFFVELTMPYSVIRGEAFTLKATVLNYLPKCIRVSVQLEASPAFLAVPVEKEQAPHCICANGRQTVSWAVTPKSLGNVNFTVSAEALESQELCGTEVPSVPEHGRKDTVIKPLLVEPEGLEKETTFNSLLCPSGGEVSEELSLKLPPNVVEESARASVSVLGDILGSAMQNTQNLLQMPYGCGEQNMVLFAPNIYVLDYLNETQQLTPEIKSKAIGYLNTGYQRQLNYKHYDGSYSTFGERYGRNQGNTWLTAFVLKTFAQARAYIFIDEAHITQALIWLSQRQKDNGCFRSSGSLLNNAIKGGVEDEVTLSAYITIALLEIPLTVTHPVVRNALFCLESAWKTAQEGDHGSHVYTKALLAYAFALAGNQDKRKEVLKSLNEEAVKKDNSVHWERPQKPKAPVGHFYEPQAPSAEVEMTSYVLLAYLTAQPAPTSEDLTSATNIVKWITKQQNAQGGFSSTQDTVVALHALSKYGAATFTRTGKAAQVTIQSSGTFSSKFQVDNNNRLLLQQVSLPELPGEYSMKVTGEGCVYLQTSLKYNILPEKEEFPFALGVQTLPQTCDEPKAHTSFQISLSVSYTGSRSASNMAIVDVKMVSGFIPLKPTVKMLERSNHVSRTEVSSNHVLIYLDKVSNQTLSLFFTVLQDVPVRDLKPAIVKVYDYYETDEFAIAEYNAPCSKDLGNADYKDDDDKGASHHHHHH
Regarding B1, the “Protease Inhibition (% of WT)” value was 100 % of WT with MMP12; 80 % of WT with MMP3; 200 % of WT with MMP13; 50 % of WT in the test with MMP8; 100 % of WT with MMP2; 70 % of WT with MMP9. In addition, the “Protease Inhibition (% of WT)” value with MMP1 was 100 % of WT; in the test with ADAMTS4 it was 250 % of WT; in the test with ADAMTS5, 350 % of WT; with bovine trypsin, 100 % of WT; in the test with Elastase it was 50 % of WT.

B2: Variant A2M, bait region SEQ ID NO 108 (other)
chain: SVSGKPQYMVLVPSLLHTETTEKGCVLLSYLNETVTVSASLESVRGNRSLFTDLEAENDVLHCVAFAVPKSSSNEEVMFLTVQVKGPTQEFKKRTTVMVKNEDSLVFVQTDKSIYKPGQTVKFRVVSMDENFHPLNELIPLVYIQDPKGNRIAQWQSFQLEGGLKQFSFPLSSEPFQGSYKVVVQKKSGGRTEHPFTVEEFVLPKFEVQVTVPKIITILEEEMNVSVCGLYTYGKPVPGHVTVSICRKYSDASDCHGEDSQAFCEKFSGQLNSHGCFYQQVKTKVFQLKRKEYEMKLHTEAQIQEEGTVVELTGRQSSEITRTITKLSFVKVDSHFRQGIPFFGQVRLVDGKGVPIPNKVIFIRGNEANYYSNATTDEHGLVQFSINTTNVMGTSLTVRVNYKDRSPCYGYQWVSEEHEEAHHTAYLVFSPSKSFVHLEPMSHELPCGHTQTVQAHYILNGGTLLGLKKLSFYYLIMAKGGIVRTGTHGLLVKQEDMKGHFSISIPVKSDIAPVARLLIYAVLPTGDVIGDSAKYDVENCLANKVDLSFSPSQSLPASHAHLRVTAAPQSVCALRAVDQSVLLMKPDAELSASSVYNLLPEKDLTGFPGPLNDQDDEDCINRHNVYINGITYTPVSSTNEKDMYSFLEDMGLKAFTNSKIRKPKMCPQLEQYEMHGPEGLRVGEAIPMSIPTSEDLVVQIPENFFGVKLRKYFPETWIWDLVVVNSAGVAEVGVTVPDTITEWKAGAFCLSEDAGLGISSTASLRAFQPFFVELTMPYSVIRGEAFTLKATVLNYLPKCIRVSVQLEASPAFLAVPVEKEQAPHCICANGRQTVSWAVTPKSLGNVNFTVSAEALESQELCGTEVPSVPEHGRKDTVIKPLLVEPEGLEKETTFNSLLCPSGGEVSEELSLKLPPNVVEESARASVSVLGDILGSAMQNTQNLLQMPYGCGEQNMVLFAPNIYVLDYLNETQQLTPEIKSKAIGYLNTGYQRQLNYKHYDGSYSTFGERYGRNQGNTWLTAFVLKTFAQARAYIFIDEAHITQALIWLSQRQKDNGCFRSSGSLLNNAIKGGVEDEVTLSAYITIALLEIPLTVTHPVVRNALFCLESAWKTAQEGDHGSHVYTKALLAYAFALAGNQDKRKEVLKSLNEEAVKKDNSVHWERPQKPKAPVGHFYEPQAPSAEVEMTSYVLLAYLTAQPAPTSEDLTSATNIVKWITKQQNAQGGFSSTQDTVVALHALSKYGAATFTRTGKAAQVTIQSSGTFSSKFQVDNNNRLLLQQVSLPELPGEYSMKVTGEGCVYLQTSLKYNILPEKEEFPFALGVQTLPQTCDEPKAHTSFQISLSVSYTGSRSASNMAIVDVKMVSGFIPLKPTVKMLERSNHVSRTEVSSNHVLIYLDKVSNQTLSLFFTVLQDVPVRDLKPAIVKVYDYYETDEFAIAEYNAPCSKDLGNADYKDDDDKGASHHHHHH
Take B2: the “Protease Inhibition (% of WT)” value was 330 % of WT with MMP3; 350 % of WT in the test with MMP13; 40 % of WT in the test with MMP8; 110 % of WT with MMP2; 70 % of WT with MMP9; 390 % of WT with MMP1. Besides, the “Protease Inhibition (% of WT)” value with ADAMTS4 was 50 % of WT; with ADAMTS5, 90 % of WT; with bovine trypsin it was 100 % of WT; in the test with Elastase, 50 % of WT; with chymotrypsin, 100 % of WT.
